Among the data in paper PMC6582535 are percent decrease of A-type K+ current (IA) in small-sized mouse DRG neurons values, retold here.

The assay concerns the target Cholecystokinin type B receptor (mouse (endogenous in DRG)) (UniProt P56481).
Sequence of UniProt P56481 (P56481 whole entry): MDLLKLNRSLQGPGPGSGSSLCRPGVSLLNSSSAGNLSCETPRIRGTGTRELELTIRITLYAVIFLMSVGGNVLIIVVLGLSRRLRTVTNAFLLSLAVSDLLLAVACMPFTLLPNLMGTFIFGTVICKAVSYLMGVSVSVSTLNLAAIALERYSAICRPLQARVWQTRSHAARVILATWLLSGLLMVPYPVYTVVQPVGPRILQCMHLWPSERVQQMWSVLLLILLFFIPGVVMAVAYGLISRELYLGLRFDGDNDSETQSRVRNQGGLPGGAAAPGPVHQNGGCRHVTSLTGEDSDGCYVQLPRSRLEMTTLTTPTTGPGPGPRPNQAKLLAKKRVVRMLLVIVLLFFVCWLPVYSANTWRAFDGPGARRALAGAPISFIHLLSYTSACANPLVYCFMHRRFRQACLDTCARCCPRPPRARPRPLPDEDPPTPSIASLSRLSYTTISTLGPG

As to CCK-4 (peptide), the percent decrease of A-type K+ current (IA) in small-sized mouse DRG neurons at 300 nM CCK-4 came out at 32.2%.
